Data on 28 substances can be found in US12059458B2, “Peptides and combination of peptides and scaffolds for use in immunotherapy against renal cell carcinoma (RCC) and other cancers” (Immatics Biotechnologies GmbH, priority 2015, dated 2024).

This experiment deals with HLA-A*02:01 (Homo sapiens, UniProt P04439, D140Y/D185E/D98H/E176V/E277Q/G131W/G231S/I119V/I121R/I166T/I218V/L300P/L318F/N151K/N90K/P208A/P217A/Q86G/Q94H/R138H/R169H/T345S). Description: MHC binding assay (UV-ligand exchange, beta2m ELISA, peptide exchange yield). The following applies: binding to HLA-A*02:01 ranged by peptide exchange yield, β2m ELISA. An excerpt: Candidate peptides for T cell based therapies according to the present invention were further tested for their MHC binding capacity (affinity). The individual peptide-MHC complexes were produced by UV-ligand exchange, where a UV-sensitive peptide is cleaved upon UV-irradiation, and exchanged with the peptide of interest as analyzed. Only peptide candidates that can effectively bind and stabilize the peptide-receptive MHC molecules prevent dissociation of the MHC complexes. To determine the yield of the exchange reaction, an ELISA was performed based on the detection of the light chain (β2m) of stabilized MHC complexes. The assay was performed as generally described in Rodenko et al. (Rodenko et al., 2006).
96 well MAXISorp plates (NUNC) were coated over night with 2 ug/ml streptavidin in PBS at room temperature, washed 4× and blocked for 1 h at 37° C. in 2% BSA containing blocking buffer. Refolded HLA-A*02:01/MLA-001 monomers served as standards, covering the range of 15-500 ng/ml. Peptide-MHC monomers of the UV-exchange reaction were diluted 100 fold in blocking buffer. Samples were incubated for 1 h at 37° C., washed four times, incubated with 2 ug/ml HRP conjugated anti-β2m for 1h at 37° C., washed again and detected with TMB solution that is stopped with […]. Absorption was measured at 450 nm. Candidate peptides that show a high exchange yield (preferably higher than 50%, most preferred higher than 75%) are generally preferred for a generation and production of antibodies or fragments thereof, and/or T cell receptors or fragments thereof, as they show sufficient avidity to the MHC molecules and prevent dissociation of the MHC complexes.

“91 (MLLSSLVSL; listed as Homo sapiens) [compound 91]”: the “Peptide exchange (MHC class I binding score)” value (“Peptide exchange” below) was “++ (≥20% = ++)”.
With “46 (GLSEVLVQI; listed as Homo sapiens) [compound 46]”, the “Peptide exchange” value was “+++ (≥50 = +++)”.
To “65 (IIYGGSVTGA; listed as Homo sapiens) [compound 65]” belongs “++ (≥20% = ++)”.
To “10 (KLLQNNYGL; listed as Homo sapiens) [compound 10]” belongs “++ (≥20% = ++)”; to “112 (LLFDHLEPIEL; listed as Homo sapiens) [compound 112]”, “+++ (≥50 = +++)”.
Turning to “81 (SLLPALPKL; listed as Homo sapiens) [compound 81]”, the “Peptide exchange” value is “++ (≥20% = ++)”.
For the substance “47 (TLAEVRAVQEI; listed as Homo sapiens) [compound 47]”, the “Peptide exchange” value is given as “+++ (≥50 = +++)”.
“82 (SLLQATDFMSL; listed as Homo sapiens) [compound 82]”: the “Peptide exchange” value is given as “+++ (≥50 = +++)”.
To “12 (ALDPSGNQLI; listed as Homo sapiens) [compound 12]” belongs “++ (≥20% = ++)”; to “113 (SLFDWNVKL; listed as Homo sapiens) [compound 113]”, “+++ (≥50 = +++)”; to “25 (LLVPAHLVAA; listed as Homo sapiens) [compound 25]”, “++ (≥20% = ++)”.
“97 (TLISELVQA; listed as Homo sapiens) [compound 97]”: the “Peptide exchange” value is “++ (≥20% = ++)”.
In the case of “83 (IQWSIVPEV; listed as Homo sapiens) [compound 83]”, the “Peptide exchange” value was “+++ (≥50 = +++)”.
For the substance “37 (VLAPVILML; listed as Homo sapiens) [compound 37]”, the “Peptide exchange” value is listed as “++ (≥20% = ++)”.
The same measure for “60 (ILWKDIEYV; listed as Homo sapiens) [compound 60]”: “+++ (≥50 = +++)”.
The same measure for “52 (SILDAVQRV; listed as Homo sapiens) [compound 52]”: “++ (≥20% = ++)”; for “92 (FLFRDILEL; listed as Homo sapiens) [compound 92]”: “+++ (≥50 = +++)”; for “86 (GLLQGKLALL; listed as Homo sapiens) [compound 86]”: “++ (≥20% = ++)”.
“45 (ALLGIPLTL; listed as Homo sapiens) [compound 45]”: the “Peptide exchange” value is recorded as “+++ (≥50 = +++)”.
For “72 (YSLEKVFGI; listed as Homo sapiens) [compound 72]”, the “Peptide exchange” value is on record as “++ (≥20% = ++)”.
Turning to “78 (ALLDTVVQA; listed as Homo sapiens) [compound 78]”, the “Peptide exchange” value is reported as “++ (≥20% = ++)”.
For the substance “66 (TLLKTIIKV; listed as Homo sapiens) [compound 66]”, the “Peptide exchange” value is “++ (≥20% = ++)”.
To “70 (SLTALRLLL; listed as Homo sapiens) [compound 70]” belongs “++ (≥20% = ++)”; to “55 (YLALILPVL; listed as Homo sapiens) [compound 55]”, “++ (≥20% = ++)”; to “27 (SLSDLLVSL; listed as Homo sapiens) [compound 27]”, “+++ (≥50 = +++)”.
Consider “38 (VLLDTILQL; listed as Homo sapiens) [compound 38]”, for which the “Peptide exchange” value is on record as “+++ (≥50 = +++)”.
Take “104 (ALFEGVVRQI; listed as Homo sapiens) [compound 104]”: the “Peptide exchange” value is “+++ (≥50 = +++)”.
For the substance “5 (YLYPNLTRL; listed as Homo sapiens) [compound 5]”, the “Peptide exchange” value was “++ (≥20% = ++)”.
